This assay concerns the target fgfr4_human FGFR4 (UniProt P22455).
Sequence of UniProt P22455 (P22455 whole entry, looked up): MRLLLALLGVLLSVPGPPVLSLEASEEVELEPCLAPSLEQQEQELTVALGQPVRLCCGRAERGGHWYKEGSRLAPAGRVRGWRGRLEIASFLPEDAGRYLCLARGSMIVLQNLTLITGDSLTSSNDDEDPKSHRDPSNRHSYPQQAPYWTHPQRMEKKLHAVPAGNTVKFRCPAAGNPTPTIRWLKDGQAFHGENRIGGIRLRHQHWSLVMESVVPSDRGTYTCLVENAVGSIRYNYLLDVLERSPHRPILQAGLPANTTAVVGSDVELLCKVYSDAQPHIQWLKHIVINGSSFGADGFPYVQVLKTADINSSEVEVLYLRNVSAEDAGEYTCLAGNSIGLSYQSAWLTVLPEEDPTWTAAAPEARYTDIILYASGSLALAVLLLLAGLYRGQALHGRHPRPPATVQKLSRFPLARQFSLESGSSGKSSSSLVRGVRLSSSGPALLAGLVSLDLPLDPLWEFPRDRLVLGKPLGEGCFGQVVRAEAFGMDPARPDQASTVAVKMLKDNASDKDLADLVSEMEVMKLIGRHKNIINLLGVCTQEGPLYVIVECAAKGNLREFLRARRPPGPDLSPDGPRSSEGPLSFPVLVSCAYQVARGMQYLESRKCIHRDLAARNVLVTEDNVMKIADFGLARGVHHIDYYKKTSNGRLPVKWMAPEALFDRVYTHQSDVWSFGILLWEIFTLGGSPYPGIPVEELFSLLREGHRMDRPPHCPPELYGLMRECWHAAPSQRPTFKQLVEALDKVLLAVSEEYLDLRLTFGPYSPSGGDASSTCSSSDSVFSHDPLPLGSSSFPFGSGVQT

For the substance “Matrix metalloproteinase-14 (Homo sapiens) (from UniProt P50281) E240A”, the “effect of a mutation on the interaction” value is “decreasing interaction”.
With “Matrix metalloproteinase-14 (Homo sapiens) (from UniProt P50281) Y573F” the entry was “decreasing interaction”.

The values are drawn from IntAct's records for PubMed 20798051.
